Source: US5286714
Residue numbers refer to the chain shown, from its start.

B1: [Ala^1,Thr^2,Glu^33,Glu^53] desulfatohirudin (protein)
chain: ATYTDCTESGQNLCLCEGSNVCGQGNKCILGSDGEKNQCVTGEGTPKPQSHNEGDFEEIPEEYLQ
B2: [Ala^1,Thr^2,Gln^52,Glu^53,Ala^54] desulfatohirudin (protein)
chain: B1 chain with N52Q, G54A
B3: [Ala^1,Thr^2,Glu^33,Gln^52,Glu^53,Ala^54]-desulfatohirudin (protein)
chain: B1 chain with D33E, N52Q, G54A
B4: [Ala^1,Thr^2,Glu^33] desulfatohirudin (protein)
chain: B1 chain with D33E, E53D
B5: [Ala^1,Thr^2,Gln^52,Glu^53,Glu^55] desulfatohirudin (protein)
chain: B1 chain with N52Q, D55E
B6: [Ala^1,Thr^2,Glu^33,Gln^52,Glu^53,Glu^55]-desulfatohirudin (protein)
chain: B1 chain with D33E, N52Q, D55E
B7: [Ala^1,Thr^2,Ala^54] desulfatohirudin (protein)
chain: B1 chain with E53D, G54A
B8: [Ala^1,Thr^2,Glu^33,Ala^54] desulfatohirudin (protein)
chain: B1 chain with D33E, E53D, G54A
B9: [Ala^1,Thr^2,Glu^53] desulfatohirudin (protein)
chain: B1 chain

target: thrombin; assay: Ki(app.) from kinetics of thrombin inhibition with chromogenic substrate D-HHT-Gly-Arg-pNA (Stone and Hofsteenge), 25° C.

Row | Molecule | Ki
1 | [Ala^1,Thr^2] desulfatohirudin | 0.2 nM
2 | [Leu^1,Thr^2] desulfatohirudin | 0.14 nM
3 | [Ile^1,Thr^2] desulfatohirudin | 0.61 nM
4 | B1 | 0.37 nM
5 | B2 | 0.22 nM
6 | B3 | 0.31 nM
7 | B4 | 0.16 nM
8 | B5 | 0.19 nM
9 | B6 | 0.3 nM
10 | B7 | 0.27 nM
11 | B8 | 0.35 nM
12 | B9 | 0.38 nM
